Consider one molecule from patent publication US20180036395A1, “DOSAGE AND ADMINISTRATION OF MONOSPECIFIC AND BISPECIFIC ANTI-IGR-1R AND ANTI-ERBB3 ANTIBODIES” (Merrimack Pharmaceuticals, Inc., priority 2012, published 2018).

One data set has as its system BxPC-3 tumors. Description: BxPC-3 xenograft pharmacodynamic (PD) study, western blotting of tumor lysates. The data set is classed as in vivo, human. Particulars: BxPC-3 PD study tumors.
In data set [1] the test system is non-small cell lung cancer (NSCLC). The data set is described as follows: Treatment of patients with non-small cell lung cancer. The class given is in vivo, human. To be noted: everolimus + P4-G1-M1.3. The protocol:
(§1) P4-G1-M1.3 is formulated in 20 mM histidine, 100 mM arginine-HCl, 3% sucrose, at pH 5.5 supplemented with 0.002-0.02% of Tween® 80 at concentration range 5-15 mg/mL. P4-G1-M1.3 is administered to patients at 6 mg/kg, 12 mg/kg, 20 mg/kg, 30 mg/kg, 40 mg/kg, 50 mg/kg or 60 mg/kg q7d, ql4d, q21d, or q28d with a loading dose of 12 mg/kg, 20 mg/kg, 40 mg/kg, 40 mg/kg or 60 mg/kg Everolimus is administered to patients at 2.5 mg, 5 mg, or 10 mg orally once a day or once every other day.
Patients with non-small cell lung cancer (NSCLC) are treated by administration of either monotherapy with an effective amount of everolimus or an effective amount of P4-G1-M1.3, or with combination therapy comprising or consisting of administration of both the effective amount of everolimus and the effective amount of P4-G1-M1.3. P4-G1-M1.3 and everolimus are prepared and dosed as described in Example 1.

The subject of data set [2] is HepG2 hepatocellular carcinoma cells. The data set is described as follows: HepG2 quantitative western blotting. The data set is classed as cell-based, human. Particulars: 2 hours or 6 hours, compared to either alone, FIG. 5. The protocol:
Cells were treated with 500 nM P4-G1-M1.3, […] sorafenib or the combination for either 2 hours or 6 hours and quantitative western blotting was performed.
Buffer containing β-Mercaptoethanol (β-ME) is added and lysates are boiled for 5 minutes at 95° C. Approximately 40 μg of protein and two ladders (Invitrogen) are run on each well of an 18-well gel (BioRad). Gels are run at 150 volts constant for approximately 90 minutes and transferred to nitrocellulose membranes using the 8 minute transfer program of the iBlot® (Invitrogen) transfer system. Membranes are blocked in Odyssey® Blocking Buffer (Licor® Biosciences) for 1 hour at room temperature, and then incubated with primary antibodies overnight at 4° C. in 5% BSA in TBS-T. All antibodies are purchased from Cell Signaling and used at the recommended dilution. The following day membranes are washed 3×5 minutes each with TBS-T and then incubated with anti-Rabbit IgG—DyLight® 800 (Cell Signaling) or anti-Rabbit IRDye® 800 (Licor® Biosciences) at 1:10,000-15,000 in 5% milk in TBS-T for 1 hour at room temperature. Membranes were then washed 3×5 minutes each with TBS-T and scanned using the Licor® Odyssey® system (Licor® Biosciences). Intensities are quantified using Image Studio 2.0 and normalized to β-Actin levels. […]

The next data set concerns BxPC-3 cells. The data set is described as follows: In vitro signaling ELISA, KRAS wild-type cells. To be noted: combination 500 nM P4-G1-M1.3 + 250 nM GSK1120212, 24 hours, 10% serum, FIG. 3. The class given is cell-based, human. The procedure: (§2) Cells were treated with 500 nM P4-G1-M1.3, 250 nM GSK1120212 or the combination for 24 hours in 10% serum and ELISA assays were performed. The data was normalized to 10% serum without treatment.
(§3) The preclinical models to support this example are performed using BxPC-3 (KRAS wild-type) and KP4 (KRAS mutant) cell lines.

For a further data set, the system named is melanoma. Description: Treatment of patients with melanoma. The data set is classed as in vivo, human. To be noted: vemurafenib or dabrafenib + P4-G1-M1.3. The protocol: as §1
Patients with melanoma are treated by administration of either monotherapy with an effective amount of vemurafenib (Zelboraf®) or an effective amount of P4-G1-M1.3, or with combination therapy comprising or consisting of administration of both the effective amount of vemurafenib or dabrafenib and the effective amount of P4-G1-M1.3. P4-G1-M1.3 is formulated and administered as described above in Example 1. Vemurafenib is given orally at 960 mg 1-2 times daily. Dabrafenib is administered as administered in dabrafenib phase III clinical trials.

For a further data set, the system named is KP4 cells. The data set is described as follows: In vitro signaling ELISA, KRAS mutant cells. The data set is classed as cell-based, human. Particulars: combination 500 nM P4-G1-M1.3 + 250 nM GSK1120212, 24 hours, 10% serum, FIG. 3. The protocol: as §2, §3
Data set [3] concerns DU145 prostate cancer cells. The data set is described as follows: DU145 prostate cancer xenograft study. The class given is in vivo, human. To be noted: combination of docetaxel (10mpk q7d) and P4-G1-M1.3 (30mpk, q3d); FIG. 4. The protocol:
The y-axis represents mean tumor volume in mm^3 and the x-axis represents time in days.
For each of the xenograft studies below, cells are resuspended 1:1 with PBS:Growth factor-reduced Matrigel® and injected subcutaneously into Nu/Nu mice. Tumors are allowed to develop for 8 days. Antibodies are injected intraperitoneally every 3 days (q3d) at the indicated doses/mouse. Tumor lengths and widths are measured twice a week manually by caliper, and tumor volume calculated using the following formula: π/6(L×W^2). Each arm of a study contains 10 animals. All studies are carried out using methods approved by an internal IACUC panel.
Statistical significance across groups was determined using the student's T-test (*,p<0.05 vs control.; #,p<0.05 vs docetaxel; a,p<0.05 vs P4-G1-M1.3).

Data set [4] concerns hepatocellular carcinoma (HCC). The data set is described as follows: Treatment of patients with hepatocellular carcinoma. The class given is in vivo, human. The procedure:
as §1
Patients with hepatocellular carcinoma (HCC) are treated with P4-G1-M1.3 monotherapy. Patients are dosed with P4-G1-M1.3 as described in Example 1 (second line in patients refractory to sorafenib). […] Preclinical data to support this example may be obtained using HepG2 cells in vitro and in vivo.
Patients with hepatocellular carcinoma (HCC) are treated with a combination of an effective amount of sorafenib and an effective amount of P4-G1-M1.3. Patients are dosed with P4-G1-M1.3 as described in Example 1. Patients are dosed with sorafenib at 400 mg daily. […] Preclinical data to support this example may be obtained using HepG2 cells in vitro and in vivo.

Method for BxPC-3 tumors: BxPC-3 mouse xenograft models are established using 5×10^6 BxPC-3 cells that are resuspended 1:1 with PBS:Growth factor-reduced Matrigel® and injected subcutaneously into Nu/Nu mice. Tumors are allowed to develop for 8 days. Antibodies are injected intraperitoneally every 3 days (q3d) for 2 rounds of dosing.
For the BxPC-3 PD study, 4 treatment groups are established, each containing 4 mice. These included control, P4-G1-M1.3 (q3d, 600 μg), gemcitabine (q3d, 150 mg/kg) and P4-G1-M1.3+gemcitabine (combined individual doses). Tumors are excised on either day 19 or day 28, resulting in a total of 8 groups.
Tumors are initially weighed and pulverized in a CryoPrep® tissue pulverizer (Covaris). Tissue Extraction Reagent 1 (TER1, Life Technologies™) containing protease and phosphatase inhibitors was added to the tumor at a ratio of lml TER1 per 100 mg of tissue. Samples are incubated on ice for 30 minutes to solubilize tissue and put through a QIAshredder™ column (Qiagen) according to the manufacturer's protocol. A BCA assay (Pierce) is performed to determine protein concentration according to the manufacturer's protocol.
Using BxPC-3 xenografts, mice with control tumors were compared to those treated with monotherapy with P4-G1-M1.3, monotherapy with gemcitabine or combination therapy with P4-G1-M1.3 and gemcitabine.

B1: P4-G1-M1.3: anti-IGF-1R+anti-ErbB3 polyvalent bispecific antibody, IgG1-(scFv)2 (SEQ ID NO:148 and SEQ ID NO:149) (protein)
chain 1: EVQLLQSGGGLVQPGGSLRLSCAASGFLFSSYPMHWVRQAPGKGLEWVGSISPSGGATPYADSVKGRFTISRDNSKNTLYLQMNSLRPEDTAVYYCAKDFYNILTGNAFDKWGQGTSVTVSSASTGGGGSGGGGSGGGGSGGGGSDIQLTQSPSSLSASLGDRVTITCRASQGISSYLAWYQQKPGKAPKLLIYAGSTPQSGVPSRFSGSGSGTEFTLTISSLQPEDSGTYYCQQYWTWPLTFGGGTKVEIKRT
chain 2: EVQLVESGGGLVQPGRSLRLSCAASGFTFDDYAMHWVRQAPGKGLEWVSGISWNSGSTGYADSVKGRFTISRDNAKNSLYLQMNSLRAEDTALYYCARDLGYNQWLEGFDYWGQGTLVTVSSASTGGGGSGGGGSGGGGSGGGGSSSELTQDPAVSVALGQTVRITCQGDSLRSYYASWYQQKPGQAPVLVIYGKNNRPSGIPDRFSGSSSGNTASLTITGAQAEDEADYYCMSRDHPGNQWVFGGGTKVTVLG
modifications: Synthetic polypeptide:Anti-IGF-1R scFvs M76; Synthetic polypeptide:Anti-ErbB3 scFvs P6L
B1: in the data set with BxPC-3 tumors (FIG. 2H), the ERK phosphorylation entry is “inhibits ERK phosphorylation”. Also, in the data set on BxPC-3 tumors (P4-G1-M1.3 600 μg + gemcitabine 150 mg/kg q3d, FIG. 2H), the “apoptosis-inducing activity of gemcitabine (survivin)” value is “potentiates apoptosis-inducing activity of gemcitabine”. In the data set on BxPC-3 tumors (P4-G1-M1.3 q3d 600 μg, FIG. 2A-2C), the “level of receptor complexes (IGF-1R, Insulin Receptor, EGFR, ErbB3, ErbB2)” value is “downregulates receptor complexes”. Moreover, in the data set with BxPC-3 tumors (P4-G1-M1.3 q3d 600 μg, FIG. 2D-2G, 2I, 2J), the “PI3K/AKT/mTOR signaling (phospho-AKT, phospho-FoxO, phospho-PDK1, phospho-mTOR, phospho-S6, pRAS40, p4EB-PB1)” value is reported as “inhibits PI3K/AKT/mTOR signaling”. Besides, the treatment outcome is listed as “combinatorially enhanced outcome” in data set [1]; “combinatorially enhanced outcome” with melanoma; “combinatorially enhanced outcome” in data set [4] (patients with HCC, sorafenib 400 mg daily + P4-G1-M1.3). Also, the “downstream signaling (pErbB3, pAkt Ser473, pERK1/2)” value in data set [2] (combination of 500 nM P4-G1-M1.3 and 504 sorafenib) is recorded as “inhibits downstream signaling”. Also, in data set [2] (combination of 500 nM P4-G1-M1.3 and sorafenib), the ErbB3 level entry is reported as “downregulation of ErbB3”. Further, the “signaling (pAkt Ser473, pERK)” value with BxPC-3 cells and in the data set on KP4 cells was “inhibition of signaling” each time. The “growth of DU145 prostate cancer cells in vivo (mean tumor volume)” value in data set [3] was “inhibition of growth”. The “HCC symptoms (e.g., time to progression or progression-free survival)” value in data set [4] (P4-G1-M1.3 monotherapy, second line in patients refractory to sorafenib, vs untreated historical controls or best supportive care) is “statistically significant improvement in HCC symptoms”.
